B1: TR01H050-E22Hh/none-Hi-Kn010G3/L0000-k0 (antibody, human IgG1, kappa, L234A L235A, N297A)
heavy: QVQLVESGGGLVQPGRSLRLSCAASGFTFSNAWMHWVRQAPGKGLEWVAQIKDKSQNYATYYAESVKGRFTISRDDSKNSIYLQMNSLKTEDTAVYYCRYVHYSASYGVDYWGQGTTVTVSSASTKGPSVFPLAPSSKSTSGGTAALGCLVKDYFPEPVTVSWNSGALTSGVHTFPAVLQSSGLYSLSSVVTVPSSSLGTQTYICNVNHKPSNTKVDKKVEPKSCDKTHTCPPCPAPEAAGGPSVFLFPPKPKDTLMISRTPEVTCVVVDVSHEDPEVKFNWYVDGVEVHNAKTKPREEQYASTYRVVSVLTVLHQDWLNGKEYKCKVSNKALPAPIEKTISKAKGQPREPQVYTLPPSRCELTKNQVSLSCAVKGFYPSDIAVEWESNGQPENNYKTTPPVLDSDGSFFLVSKLTVDKSRWQQGNVFSCSVMHEALHNHYTQKSLSLSPDYKDDDDK
chain: EPKSSDKTHTCPPCPAPELLGGPSVFLFPPKPKDTLMISRTPEVTCVVVDVSHEDPEVKFNWYVDGVEVHNAKTKPREEQYNSTYRVVSVLTVLHQDWLNGKEYKCKVSNKALPAPIEKTISKAKGQPREPQVCTLPPSRDELTKNQVSLWCLVKGFYPSDIAVEWESNGQPENNYKTTPPVLDSDGSFFLYSKLTVDKSRWQQGNVFSCSVMHEALHNRYTQKSLSLSP
light: DIVMTQSPLSLPVTPGEPASISCRSSQSLVHSNRNTYLHWYQQKPGQAPRLLIYKVSNRFSGVPDRFSGSGSGTDFTLKISRVEAEDVGVYYCGQGTQVPYTFGQGTKLEIKRTVAAPSVFIFPPSDEQLKSGTASVVCLLNNFYPREAKVQWKVDNALQSGNSQESVTEQDSKDSTYSLSSTLTLSKADYEKHKVYACEVTHQGLSSPVTKSFNRGEC
notes: single-arm
B2: TR01H051-E22Hh/none-Hi-Kn010G3/L0000-k0 (antibody, human IgG1, kappa, L234A L235A, N297A)
heavy: QVQLVESGGGLVQPGRSLRLSCAASGFTFSNAWMHWVRQAPGKGLEWVAQIKDKSNNYATYYAESVKGRFTISRADSKNSLYLQMNSLKTEDTAVYYCRYVHYSASYGVDIWGQGTTVTVSSASTKGPSVFPLAPSSKSTSGGTAALGCLVKDYFPEPVTVSWNSGALTSGVHTFPAVLQSSGLYSLSSVVTVPSSSLGTQTYICNVNHKPSNTKVDKKVEPKSCDKTHTCPPCPAPEAAGGPSVFLFPPKPKDTLMISRTPEVTCVVVDVSHEDPEVKFNWYVDGVEVHNAKTKPREEQYASTYRVVSVLTVLHQDWLNGKEYKCKVSNKALPAPIEKTISKAKGQPREPQVYTLPPSRCELTKNQVSLSCAVKGFYPSDIAVEWESNGQPENNYKTTPPVLDSDGSFFLVSKLTVDKSRWQQGNVFSCSVMHEALHNHYTQKSLSLSPDYKDDDDK
chain: EPKSSDKTHTCPPCPAPELLGGPSVFLFPPKPKDTLMISRTPEVTCVVVDVSHEDPEVKFNWYVDGVEVHNAKTKPREEQYNSTYRVVSVLTVLHQDWLNGKEYKCKVSNKALPAPIEKTISKAKGQPREPQVCTLPPSRDELTKNQVSLWCLVKGFYPSDIAVEWESNGQPENNYKTTPPVLDSDGSFFLYSKLTVDKSRWQQGNVFSCSVMHEALHNRYTQKSLSLSP
light: DIVMTQSPLSLPVTPGEPASISCRSSQSLVHSNRNTYLHWYQQKPGQAPRLLIYKVSNRFSGVPDRFSGSGSGTDFTLKISRVEAEDVGVYYCGQGTQVPYTFGQGTKLEIKRTVAAPSVFIFPPSDEQLKSGTASVVCLLNNFYPREAKVQWKVDNALQSGNSQESVTEQDSKDSTYSLSSTLTLSKADYEKHKVYACEVTHQGLSSPVTKSFNRGEC
notes: single-arm
B3: TR01H052-E22Hh/none-Hi-Kn010G3/L0000-k0 (antibody, human IgG1, kappa, L234A L235A, N297A)
heavy: QVQLVESGGGLVQPGRSLRLSCAASGFTFSNAWMHWVRQAPGKGLEWVAQIKDKSQNYATYYAESVKGRFTISRADSKNSLYLQMNSLKTEDTAVYYCRYVHYSASYGVDIWGQGTTVTVSSASTKGPSVFPLAPSSKSTSGGTAALGCLVKDYFPEPVTVSWNSGALTSGVHTFPAVLQSSGLYSLSSVVTVPSSSLGTQTYICNVNHKPSNTKVDKKVEPKSCDKTHTCPPCPAPEAAGGPSVFLFPPKPKDTLMISRTPEVTCVVVDVSHEDPEVKFNWYVDGVEVHNAKTKPREEQYASTYRVVSVLTVLHQDWLNGKEYKCKVSNKALPAPIEKTISKAKGQPREPQVYTLPPSRCELTKNQVSLSCAVKGFYPSDIAVEWESNGQPENNYKTTPPVLDSDGSFFLVSKLTVDKSRWQQGNVFSCSVMHEALHNHYTQKSLSLSPDYKDDDDK
chain: EPKSSDKTHTCPPCPAPELLGGPSVFLFPPKPKDTLMISRTPEVTCVVVDVSHEDPEVKFNWYVDGVEVHNAKTKPREEQYNSTYRVVSVLTVLHQDWLNGKEYKCKVSNKALPAPIEKTISKAKGQPREPQVCTLPPSRDELTKNQVSLWCLVKGFYPSDIAVEWESNGQPENNYKTTPPVLDSDGSFFLYSKLTVDKSRWQQGNVFSCSVMHEALHNRYTQKSLSLSP
light: DIVMTQSPLSLPVTPGEPASISCRSSQSLVHSNRNTYLHWYQQKPGQAPRLLIYKVSNRFSGVPDRFSGSGSGTDFTLKISRVEAEDVGVYYCGQGTQVPYTFGQGTKLEIKRTVAAPSVFIFPPSDEQLKSGTASVVCLLNNFYPREAKVQWKVDNALQSGNSQESVTEQDSKDSTYSLSSTLTLSKADYEKHKVYACEVTHQGLSSPVTKSFNRGEC
notes: single-arm
B4: TR01H055-E22Hh/none-Hi-Kn010G3/L0000-k0 (antibody, human IgG1, kappa, L234A L235A, N297A)
heavy: QVQLVESGGGLVQPGRSLRLSCAASGFTFSNAWMHWVRQAPGKGLEWVAQIKDKSNNYATYYAESVKGRFTISRDDSKNSLYLQMNSLKTEDTAVYYCRYVHYSASYGVDIWGQGTTVTVSSASTKGPSVFPLAPSSKSTSGGTAALGCLVKDYFPEPVTVSWNSGALTSGVHTFPAVLQSSGLYSLSSVVTVPSSSLGTQTYICNVNHKPSNTKVDKKVEPKSCDKTHTCPPCPAPEAAGGPSVFLFPPKPKDTLMISRTPEVTCVVVDVSHEDPEVKFNWYVDGVEVHNAKTKPREEQYASTYRVVSVLTVLHQDWLNGKEYKCKVSNKALPAPIEKTISKAKGQPREPQVYTLPPSRCELTKNQVSLSCAVKGFYPSDIAVEWESNGQPENNYKTTPPVLDSDGSFFLVSKLTVDKSRWQQGNVFSCSVMHEALHNHYTQKSLSLSPDYKDDDDK
chain: EPKSSDKTHTCPPCPAPELLGGPSVFLFPPKPKDTLMISRTPEVTCVVVDVSHEDPEVKFNWYVDGVEVHNAKTKPREEQYNSTYRVVSVLTVLHQDWLNGKEYKCKVSNKALPAPIEKTISKAKGQPREPQVCTLPPSRDELTKNQVSLWCLVKGFYPSDIAVEWESNGQPENNYKTTPPVLDSDGSFFLYSKLTVDKSRWQQGNVFSCSVMHEALHNRYTQKSLSLSP
light: DIVMTQSPLSLPVTPGEPASISCRSSQSLVHSNRNTYLHWYQQKPGQAPRLLIYKVSNRFSGVPDRFSGSGSGTDFTLKISRVEAEDVGVYYCGQGTQVPYTFGQGTKLEIKRTVAAPSVFIFPPSDEQLKSGTASVVCLLNNFYPREAKVQWKVDNALQSGNSQESVTEQDSKDSTYSLSSTLTLSKADYEKHKVYACEVTHQGLSSPVTKSFNRGEC
notes: single-arm
B5: TR01H061-E22Hh/none-Hi-Kn010G3/L0000-k0 (antibody, human IgG1, kappa, L234A L235A, N297A)
heavy: QVQLVESGGGLVQPGRSLRLSCAASGFTFSNAWMHWVRQAPGKGLEWVAQIKDKSQNYATYYAESVKGRFTISRADSKNSIYLQMNSLKTEDTAVYYCRYVHYAASYGVDIWGQGTTVTVSSASTKGPSVFPLAPSSKSTSGGTAALGCLVKDYFPEPVTVSWNSGALTSGVHTFPAVLQSSGLYSLSSVVTVPSSSLGTQTYICNVNHKPSNTKVDKKVEPKSCDKTHTCPPCPAPEAAGGPSVFLFPPKPKDTLMISRTPEVTCVVVDVSHEDPEVKFNWYVDGVEVHNAKTKPREEQYASTYRVVSVLTVLHQDWLNGKEYKCKVSNKALPAPIEKTISKAKGQPREPQVYTLPPSRCELTKNQVSLSCAVKGFYPSDIAVEWESNGQPENNYKTTPPVLDSDGSFFLVSKLTVDKSRWQQGNVFSCSVMHEALHNHYTQKSLSLSPDYKDDDDK
chain: EPKSSDKTHTCPPCPAPELLGGPSVFLFPPKPKDTLMISRTPEVTCVVVDVSHEDPEVKFNWYVDGVEVHNAKTKPREEQYNSTYRVVSVLTVLHQDWLNGKEYKCKVSNKALPAPIEKTISKAKGQPREPQVCTLPPSRDELTKNQVSLWCLVKGFYPSDIAVEWESNGQPENNYKTTPPVLDSDGSFFLYSKLTVDKSRWQQGNVFSCSVMHEALHNRYTQKSLSLSP
light: DIVMTQSPLSLPVTPGEPASISCRSSQSLVHSNRNTYLHWYQQKPGQAPRLLIYKVSNRFSGVPDRFSGSGSGTDFTLKISRVEAEDVGVYYCGQGTQVPYTFGQGTKLEIKRTVAAPSVFIFPPSDEQLKSGTASVVCLLNNFYPREAKVQWKVDNALQSGNSQESVTEQDSKDSTYSLSSTLTLSKADYEKHKVYACEVTHQGLSSPVTKSFNRGEC
notes: single-arm
B6: TR01H061-E22Hh/none-Hi-Kn010G3/L0200-k0 (antibody, human IgG1, kappa, L234A L235A, N297A)
heavy: QVQLVESGGGLVQPGRSLRLSCAASGFTFSNAWMHWVRQAPGKGLEWVAQIKDKSQNYATYYAESVKGRFTISRADSKNSIYLQMNSLKTEDTAVYYCRYVHYAASYGVDIWGQGTTVTVSSASTKGPSVFPLAPSSKSTSGGTAALGCLVKDYFPEPVTVSWNSGALTSGVHTFPAVLQSSGLYSLSSVVTVPSSSLGTQTYICNVNHKPSNTKVDKKVEPKSCDKTHTCPPCPAPEAAGGPSVFLFPPKPKDTLMISRTPEVTCVVVDVSHEDPEVKFNWYVDGVEVHNAKTKPREEQYASTYRVVSVLTVLHQDWLNGKEYKCKVSNKALPAPIEKTISKAKGQPREPQVYTLPPSRCELTKNQVSLSCAVKGFYPSDIAVEWESNGQPENNYKTTPPVLDSDGSFFLVSKLTVDKSRWQQGNVFSCSVMHEALHNHYTQKSLSLSPDYKDDDDK
chain: EPKSSDKTHTCPPCPAPELLGGPSVFLFPPKPKDTLMISRTPEVTCVVVDVSHEDPEVKFNWYVDGVEVHNAKTKPREEQYNSTYRVVSVLTVLHQDWLNGKEYKCKVSNKALPAPIEKTISKAKGQPREPQVCTLPPSRDELTKNQVSLWCLVKGFYPSDIAVEWESNGQPENNYKTTPPVLDSDGSFFLYSKLTVDKSRWQQGNVFSCSVMHEALHNRYTQKSLSLSP
light: DIVMTQSPLSLPVTPGEPASISCRPSQSPVHSNRNTYLHWYQQKPGQAPRLLIYKVSNRFSGVPDRFSGSGSGTDFTLKISRVEAEDVGVYYCGQGTQVPYTFGQGTKLEIKRTVAAPSVFIFPPSDEQLKSGTASVVCLLNNFYPREAKVQWKVDNALQSGNSQESVTEQDSKDSTYSLSSTLTLSKADYEKHKVYACEVTHQGLSSPVTKSFNRGEC
notes: single-arm

Biological target: T1, soluble human CD3ε chain (human, UniProt P07766 23-126, limits assumed)
T1 construct: the text says soluble human CD3ε chain; also called human CD3 epsilon chain
Assay: SPR (Biacore)

T1 sequence (P07766 23-126 limits assumed): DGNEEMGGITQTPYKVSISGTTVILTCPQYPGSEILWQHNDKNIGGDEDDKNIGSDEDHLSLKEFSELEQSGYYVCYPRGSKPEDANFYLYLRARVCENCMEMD

In order of falling Kd:
1. B3  62.7 nM
2. B1  57.6 nM
3. B4  38.8 nM
4. B2  29.1 nM
5. B5  17.1 nM
6. B6  12.7 nM
